Values of other authors as cited in paper PMC7532970.
Read-outs that look alike come from different tables or passages of the source.

Assays:
CBP KIX (Homo sapiens) [1] = biological target: CBP KIX (Homo sapiens) (UniProt Q92793)
CBP KIX (Homo sapiens) [2] = biological target: CBP KIX (Homo sapiens) (UniProt Q92793); remark: listed apart in the source
CBP KIX (Homo sapiens) [3] = biological target: CBP KIX (Homo sapiens) (UniProt Q92793); remark: listed apart in the source

Sequence of CBP KIX (Homo sapiens) (Q92793 584-669): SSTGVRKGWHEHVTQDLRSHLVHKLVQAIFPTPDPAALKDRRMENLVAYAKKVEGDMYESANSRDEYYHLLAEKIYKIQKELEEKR
Sequence of c-myb (P10242 whole entry): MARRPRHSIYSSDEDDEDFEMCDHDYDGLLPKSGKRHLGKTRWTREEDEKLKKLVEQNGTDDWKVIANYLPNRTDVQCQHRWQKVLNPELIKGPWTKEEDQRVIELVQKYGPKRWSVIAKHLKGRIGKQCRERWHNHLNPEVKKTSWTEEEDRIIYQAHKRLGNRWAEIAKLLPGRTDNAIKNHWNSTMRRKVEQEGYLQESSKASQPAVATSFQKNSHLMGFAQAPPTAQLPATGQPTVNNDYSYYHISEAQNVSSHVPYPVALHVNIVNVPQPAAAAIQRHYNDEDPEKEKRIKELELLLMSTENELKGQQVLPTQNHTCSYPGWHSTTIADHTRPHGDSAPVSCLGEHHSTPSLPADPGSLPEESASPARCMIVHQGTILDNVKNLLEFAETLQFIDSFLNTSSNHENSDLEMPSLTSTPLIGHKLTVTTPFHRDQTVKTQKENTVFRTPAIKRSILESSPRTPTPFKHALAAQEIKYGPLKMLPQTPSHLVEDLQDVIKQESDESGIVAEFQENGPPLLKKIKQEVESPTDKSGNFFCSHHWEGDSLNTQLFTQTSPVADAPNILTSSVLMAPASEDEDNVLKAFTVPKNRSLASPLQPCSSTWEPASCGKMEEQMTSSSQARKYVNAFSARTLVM
Sequence of CREB (P16220 whole entry): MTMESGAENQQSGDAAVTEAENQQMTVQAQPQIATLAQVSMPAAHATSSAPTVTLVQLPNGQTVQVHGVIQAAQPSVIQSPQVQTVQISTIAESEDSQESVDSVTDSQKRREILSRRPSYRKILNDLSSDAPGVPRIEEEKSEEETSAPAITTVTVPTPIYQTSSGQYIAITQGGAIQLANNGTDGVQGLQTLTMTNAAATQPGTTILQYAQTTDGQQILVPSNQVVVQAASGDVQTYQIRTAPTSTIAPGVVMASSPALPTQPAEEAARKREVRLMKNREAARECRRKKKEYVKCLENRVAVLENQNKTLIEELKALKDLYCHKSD

## CREB (from UniProt P16220)
CBP KIX (Homo sapiens) [1]
  Kd: 0.7 µM

## c-myb (from UniProt P10242)
CBP KIX (Homo sapiens) [2]
  Kd: 15 µM

## p53 (from UniProt P04637)
CBP KIX (Homo sapiens) [3]
  Kd: > 90 µM
